{
  "source": "patent US7205387B2",
  "about": "“Recombinant polypeptide useful for neurotrophin receptor mediated gene delivery and as neurotrophin agonist” (Agency for Science, Technology and Research, priority 2003, dated 2007)",
  "molecules": {"B1": {"name": "SPKR4NL1-2: chimeric protein: (SPKR)4 DNA-binding domain, α-helical linker, targeting domain with loops 1 and 2 of NGF (aa 17–67), His10 tag (protein)", "chain": "MGHHHHHHHHHHSSGHIEGRHMSPKRSPKRSPKRSPKRGGTYLSEDELKAAEAAFKRHNPTGSCSVSVWVGDKTTATDIKGKEVMVLGEVNINNSVFKQYFFETKCRDPNPVDSG", "modifications": "SPKR4NL1-2"}},
  "key": {"[1]": {"system": "lumbar segment of the spinal cord", "assay": "Gene delivery in vivo, intrathecal injection, lumbar spinal cord", "parameters": "species or system rat", "conditions": "3 μg pCAGluc, PEI600 N/P 5, peptide N/P 5, intralumbar, 3 days", "from_the_text": "In vivo gene delivery was studied by intrathecal injections of adult Wistar rats (8 weeks old, 180–200 g). The rats were anesthetized by intraperitoneal injection of sodium pentobarbital. After the skin around L4–L5 was exposed, the gene delivery complex was slowly injected into the subarachnoid space using a syringe. A slight tail movement accompanied correct placement of the needle. After injection, the syringe was left in place for five minutes to limit diffusion caused by backflow pressure. Multiple injections were sometimes required to deliver the full volume of the complex. After injection, the skin was closed with surgical clips and the animals were kept warm until they recovered. […] The lumbar segment of the spinal cord and the lumbar dorsal root ganglia were excised. The tissues were homogenized in 100–400 μl of Reporter Lysis Buffer (Promega) depending on size and subjected to three freeze-thaw cycles. The lysates were centrifuged at 14000 g for 5 min at 4° C. The supernatant was tested for luciferase activity using the Luciferase Assay System (Promega) in a single-tube luminometer (Berthold Lumat LB 9507). The readings were normalized by the total protein content of the lysates, as measured by the DC Protein assay (Bio-Rad)."}, "[2]": {"system": "PC12 (TrkA and p75^NTR positive) cells", "assay": "Gene delivery in vitro (pCAGluc luciferase reporter), PC12 cells", "type": "cell-based, rat", "method": "A PC12 (rat pheochromocytoma) cell line was obtained from ATCC (American Type Culture Collection, Manassas, Va., USA) and cultured in RPMI-1640 medium supplemented with 10% fetal bovine serum (FBS) and 5% horse serum. PC12 cells are known to express TrkA and p75^NTR receptors. A COS7 (African green monkey kidney fibroblast) cell line was obtained from ATCC and cultured in Dulbecco's modified Eagle's medium (DMEM) supplemented with 10% fetal bovine serum, 50 U/ml penicillin, and 50 μg/ml streptomycin. The cells were maintained in a 37° C., 5% CO2, humidified incubator.\nTo determine the transfection efficiencies of our nucleic acid delivery systems, we employ a reporter plasmid, pCAGluc (a gift from Yoshiharu Matsuura, National Institute of Infectious Diseases, Tokyo, Japan), encoding firefly luciferase under the control of the composite promoter, CAG. CAG comprises the chicken β-actin promoter and the cytomegalovirus immediate early enhancer.\nTrkA-targeting gene delivery complexes were tested for transfection efficiency in vitro in PC12 (TrkA and p75^NTR positive) cells and COS7 (neurotrophin receptor negative) cells. The cells were grown to 50–70% confluency in microplate wells (24-, 48-, or 96-well plates). The gene delivery complexes were prepared according to specifications presented for each example. Transfection was accomplished by replacing the serum-enriched medium with half the usual volume of reduced-serum medium, Opti-MEM (Invitrogen), containing the gene delivery complexes. Where specifically mentioned, 100 μM of chloroquine was also added to help the complexes escape from endosomes. After four hours of incubation, the cells were restored to the normal medium volume and serum concentration, either by topping up with medium containing twice the usual serum concentration (RPMI-1640 with 20% FBS and 10% horse serum for PC12) or by completely replacing the medium.\nOne to two days after transfection, the cell culture medium was removed and the cells were rinsed in phosphate-buffered saline (PBS). Enough Reporter Lysis Buffer (Promega, Wisconsin, Md., USA) to cover the bottom surface was added to each well (50 μl/well for 48-well plates). After one freeze-thaw cycle, the lysates were tested for luciferase activity using the Luciferase Assay System (Promega) and a single-tube luminometer (Berthold Lumat L B 9507, Bad Wildbad, Germany). The total protein concentration of each lysate was determined using the DC Protein assay (Bio-Rad, Hercules, Calif., USA). The results were expressed in relative light units (RLU) per milligram of total protein."}, "PC12 cells [3]": {"system": "PC12 cells", "assay": "PC12 neurite outgrowth assay", "type": "cell-based, rat", "conditions": "8 μM, 3 days", "method": "Chimeric polypeptides were examined for their ability to induce neurite outgrowth in PC12 cells. Polypeptides in a range of concentrations were added to PC12 cells cultured in serum-enriched RPMI-1640 medium. The cells were incubated for three days and photographed every 24 h."}, "plasmid DNA [4]": {"system": "plasmid DNA", "assay": "DNA retardation assay (agarose gel electrophoresis)", "type": "binding", "method": "This assay qualitatively assesses the ability of a polypeptide or polycation to bind to DNA and thus to retard its migration (by decreasing its charge/mass ratio) through an agarose gel under electrophoresis. For a range of N/P ratios, polypeptide was added to 0.1 μg of plasmid DNA made up to 20 μl with either HEPES-buffered saline (HBS, 150 mM NaCl, 29 mM HEPES, pH 7.3) or 5% glucose. The mixtures were vortexed and incubated at room temperature for 30 minutes before being subjected to electrophoresis in a 0.8–1.0% Tris-borate-EDTA agarose gel stained with ethidium bromide for visualization under ultraviolet light."}, "PC12 cells [5]": {"system": "PC12 cells", "assay": "PC12 cell survival assay (MTT, serum-free medium)", "type": "cell-based, rat", "conditions": "8 μM, deprived of serum and NGF for 3 days", "method": "Undifferentiated or differentiated (by 6-day treatment with 10 ng/ml NGF) PC12 cells seeded onto collagen-coated 96-well plates were exposed to serum-free RPMI-1640 medium containing either NGF or various concentrations of chimeric polypeptides. After 3–4 days of incubation, cell viability was measured by the standard MTT assay. Cell survival was expressed as a percentage of the viability of the NGF-treated control."}, "plasmid DNA [6]": {"system": "plasmid DNA", "assay": "Ethidium bromide displacement assay", "type": "binding", "conditions": "0.8 μg DNA pre-mixed with ethidium bromide", "method": "In this assay, the quenching of the fluorescence of ethidium bromide intercalated in DNA is used to measure DNA-binding and condensing ability. Ethidium bromide (153 μl of a 0.01% solution) was added to 96 μg of plasmid DNA and diluted with water to a final volume of 6 ml. In wells of a 96-well microplate, various amounts of polypeptide were placed in a volume of 50 μl, to which 50 μl of the DNA-ethidium bromide solution was added. After five minutes of mixing, 100 μl of water was added. The fluorescence reading was taken using wavelengths of 485 nm for excitation and 593 nm for emission on a SPECTRAFluor Plus microplate reader (TECAN, Maennedorf, Switzerland)."}, "plasmid DNA [7]": {"system": "plasmid DNA", "assay": "Atomic force microscopy of polypeptide-DNA complexes", "type": "physicochemical", "method": "DNA samples, polypeptide-DNA complexes, and polypeptide-polycation-DNA complexes were prepared with a DNA concentration of 0.02 mg/ml. The samples were diluted ten-fold in HPLC-grade water, and 20 μl of each sample was deposited onto mica discs. After one minute, the mica discs were washed with HPLC-grade water and dried in a stream of filtered air. Images were acquired on a Nanoscope IIIa atomic force microscope (Digital Instruments, Santa Barbara, Calif., USA) operating in tapping mode in air, using Nanoprobe Silicon tips (Digital Instruments)."}},
  "note": "Bridge positions count the residues as written; N and C are the ends. Ends that are not written are not given here.",
  "data": [
    {"molecule": "CTTTHTFVKALTMDGKQAAWRFIRIDTACKKKKKKKKKK (CTTTHTFVKALTMDGKQAAWRFIRIDTACKKKKKKKKKK; disulfide 1-29) [NL4-10K]", "values": [
      {"measurement": "transfection in spinal cord near the lumbar injection site relative to 10K control", "setting": "[1]", "value": "decreased relative to the 10K control"},
      {"measurement": "gene delivery at N/P ratio of 1 (in words)", "setting": "[2]; 0.3 nmol peptide with 1 μg pCAGluc, 100 μM chloroquine", "value": "modest gene delivery"},
      {"measurement": "transfection efficiency relative to a mixture of NL4 and 10K peptides", "setting": "[2]; 1.5 nmol peptide per μg DNA (N/P ratio of 5), 100 μM chloroquine, 24 h", "value": 110, "unit": "times"},
      {"measurement": "dose-response of transfection efficiency with increasing amount of peptide", "setting": "[2]; 1 μg pCAGluc/well, 100 μM chloroquine", "value": "increased markedly"}
    ]},
    {"molecule": "B1", "values": [
      {"measurement": "neurite outgrowth", "setting": "PC12 cells [3]", "value": "promotes neurite outgrowth"},
      {"measurement": "DNA binding / retardation of DNA migration (in words)", "setting": "plasmid DNA [4]", "value": "reduced the mobility of DNA"},
      {"measurement": "transfection efficiency of complexes of polypeptide and DNA alone", "setting": "[2]; no polycation", "value": "relatively weak transfection efficiencies"},
      {"measurement": "transgene expression relative to PEI600 alone", "setting": "[2]; triple complexes with PEI600, highest amount of SPKR4NL1-2 tested", "value": 5000, "unit": "fold"},
      {"measurement": "transfection efficiency relative to PLL without SPKR4NL1-2", "setting": "[2]; triple complexes with poly-L-lysine (MW 1000), chloroquine, optimal amount of SPKR4NL1-2", "value": 1000, "unit": "times"},
      {"measurement": "PC12 viability as % of maximum NGF-promoted survival rate", "setting": "PC12 cells [5]", "value": 80, "unit": "%"},
      {"measurement": "N/P ratio at which ethidium bromide fluorescence dropped sharply (DNA condensation)", "setting": "plasmid DNA [6]", "value": "about 10 N/P ratio"},
      {"measurement": "DNA condensation seen by atomic force microscopy, with PEI600", "setting": "plasmid DNA [7]; PEI600 (N/P ratio of 5) added", "value": "compact nanoparticles are formed"},
      {"measurement": "DNA condensation seen by atomic force microscopy, peptide alone", "setting": "plasmid DNA [7]; peptide and plasmid DNA without polycation", "value": "only partially condenses plasmid DNA"}
    ]}
  ]
}
